Source: publication doi:10.1101/2020.06.01.127704 (bioRxiv, 2020)

Biological target: the molecule itself
Test: cryo-EM structure

B1: full-length human excitatory amino acid transporter 3 with two potential glycosylation sites mutated (N178T and N195T) (natural protein, UniProt P43005 1-524, looked up)
chain: MGKPARKGCEWKRFLKNNWVLLSTVAAVVLGITTGVLVREHSNLSTLEKFYFAFPGEILMRMLKLIILPLIISSMITGVAALDSNVSGKIGLRAVVYYFCTTLIAVILGIVLVVSIKPGVTQKVGEIARTGSTPEVSTVDAMLDLIRNMFPENLVQACFQQYKTKREEVKPPSDPEMTMTEESFTAVMTTAISKTKTKEYKIVGMYSDGINVLGLIVFCLVFGLVIGKMGEKGQILVDFFNALSDATMKIVQIIMCYMPLGILFLIAGKIIEVEDWEIFRKLGLYMATVLTGLAIHSIVILPLIYFIVVRKNPFRFAMGMAQALLTALMISSSSATLPVTFRCAEENNQVDKRITRFVLPVGATINMDGTALYEAVAAVFIAQLNDLDLGIGQIITISITATSASIGAAGVPQAGLVTMVIVLSAVGLPAEDVTLIIAVDWLLDRFRTMVNVLGDAFGTGIVEKLSKKELEQMDVSSEVNIVNPFALESTILDNEDSDTKKSYVNGGFAVDKSDTISFTQTSQF
  stoichiometry N: 3
